According to patent publication US7514534:

T1: MMP-26 (human)
T1 sequence: ASDF

B1: A04 (antibody, human IgG4, V domains shown)
VH: EVQLLESGGGLVQPGGSLRLSCAASGFTFSEYNMAWVRQAPGKGLEWVSRIGSSGGKTKYADSVKGRFTISRDNSKNTLYLQMNSLRAEDTAVYYCARDEAPDYGDDAEAFDIWGQGTMVTVSS
VL: QSALTQPPSASGTPGQRVTISCSGGYSNMGSNYAHWYQQVPGTAPKLLIYNNNQRPSGVPDRFSGSKSGTSASLAISGLRSEDEADYYCAAWDENLSGPVFGTGTKVTVLG
B2: A1-orig (antibody, human IgG4, V domains shown)
VH: EVQLLESGGGLVQPGGSLRLSCAASGFTFSYYRMSWVRQAPGKGLEWVSSIGPSGGDTLYADSVKGRFTISRDNSKNTLYLQMNSLRAEDTAVYYCARSFSSGPYYFDYWGQGTLVTVSS
VL: QSVLTQPPSASGTPGQRVIISCSGSSSNIGSHYVHWYQQVPGTAPKLLIYRNGQRPSGVPDRFSGFKSGTSASLAISGLRSEDEANYYCATWDDSVLFGGGTTLTVLG
B3: C04 (antibody, human IgG4, V domains shown)
VH: EVQLLESGGGLVQPGGSLRLSCAASGFTFSMYFMVWVRQAPGKGLEWVSWIGSSGGETPYADSVKGRFTISRDNSKNTLYLQMNSLRAEDTAVYYCARGYSSGWYVMGDYWGQGTLVTVSS
VL: QSALTQPPSASGTPGQRVTISCSGTSSNIGSHYVFWYQQLPGTAPKLLIHRNDERPSGVPDRFSGSKSGTSASLAISGLQSEDEADYYCATWDDNLNGPVFGGGTKLT
B4: A11 (antibody, human IgG4, V domains shown)
VH: EVQLLESGGGLVQPGGSLRLSCAASGFTFSWYTMMWVRQAPGKGLEWVSRISPSGGHTLYADSVKGRFTISRDNSZNTLYLQMNSLRAEDTAVYYCARDTWDDYYDSSGYYNDFDYWGQGTLVTVSS
VL: QSALTQPPSVSLAPGQTARITCGGNNIGTKSVHWYQQKPGQAPVLVVYDDSDRPSGIPERFSGSNSGNTATLTISRVEAGDEADYYCQVWDSGSDHQVFGGGTKLTVLG
B5: B06 (antibody, human IgG4, V domains shown)
VH: EVQLLESGGGLVQPGGSLRLSCAASGFTFSQYFMKWVRQAPGKGLEWVSSISPSGGLTQYADSVKGRFTISRDNSKNTLYLQMNSLRAEDTAVYYCARGGIEAPGSPSDYWGQGTLVTVSS
VL: DIQMTQSPSFLSASVGDRVTITCRASQGISSYLAWYQQKPGKAPKLLIYAASTLQSGVPSRFSGSGSGTDFTLTISSLEPEDFATYYCQESYSTPFFTFGPGTKVDIRR
B6: H6-orig (antibody, human IgG4, V domains shown)
VH: EVQLLESGGGLVQPGGSLRLSCAASGFTFSQYWMNWVRQAPGKGLEWVSGIGPSGGITYYADSVKGRFTISRDNSKNTLYLQMNSLRAEDTAVYYCARGEEDGYNSDYWGQGTLVTVSS
VL: QSELTQPPSASGSPGQSVTISCTGTSSDVGAYNYVSWYQQHPGKAPKLIIYEVNKRPSGVPDRFSASKSGNTASLTVSGLQAEDEADYYCNSYAGSNSLIFGGGTKLTVLG
B7: B10 (antibody, human IgG4, V domains shown)
VH: EVQLLESGGGLVQPGGSLRLSCAASGFTFSSYAMMWVRQAPGKGLEWVSWIVPSGGTTFYADSVKGRFTISRDNSKNTLYLQMNSLRAEDTAVYYCARGLYRWGQGTLVTVSSASTKGPSVFP
VL: DIQMTQSPSSLSASVGDRVTIACRTSQNVNRYLNWYQHKLGQAPKLLIYGATILQSGVPSRFRGSGSGTDFILTITNLQPEDFAVYYCQQTYSPPLTFGQGTKAEFKGTVAAPSV
B8: A01 (antibody, human IgG4, V domains shown)
VH: EVQLLESGGGLVQPGGSLRLSCAASGFTFSAYNMFWVRQAPGKGLEWVSGIGSSGGIAPYADSVKGRFTISRDNSKNTLYLQMNSLRAEDTAVYYCARAAYEVENWFDPWGQGTLVTVSS
VL: DIQMTQSPGTLSLSPGERATLSCRASQIVRSTYLAWYQQKPGQAPRLLIYGTSSRATGVPDRFSGSGSGTDFTLTISGLEPEDFALYYCQRYGDSPPITFGQGTRLEITR
B9: B04 (antibody, human IgG4, V domains shown)
VH: EVQLLESGGGLVQPGGSLRLSCAASGFTFSFYWMMWVRQAPGKGLEWVSGISSSGGFTKYADSVKGRFTISRDNSKNTLYLQMNSLRAEDTAVYYCARETSRRAFDIWGQGTMVTVSS
VL: DIQMTQSPSSVSASVGDRVTITCRASQGISKSLAWYQQKPGKAPKLLVYGAFSLESGVPSRFSGTGAGTDFILTISRLQPEDFATYYCQQANSFPLTFGGGTKVEIKR
B10: D6-orig (antibody, human IgG4, V domains shown)
VH: EVQLLESGGGLVQPGGSLRLSCAASGFTFSMYSMRWVRQAPGKGLEWVSSIYPSGGSTEYADSVKGRFTISRDNSKNTLYLQMNSLRAEDTAVYYCAREGGENDYWGQGTLVTVSS
VL: DIQMTQSPLSLSASVGDRVAITCRASQSIDTYLNWYQQKPGKAPKLLIYAASKLEDGVPSRFSGSGTGTDFTLTIRSLQPEDFASYFCQQSYSSPGITFGPGTKVEIKR
B11: C01 (antibody, human IgG4, V domains shown)
VH: EVQLLESGGGLVQPGGSLRLSCAASGFTFSNYGMSWVRQAPGKGLEWVSVIGPSGGITMYADSVKGRFTISRDNSKNTLYLQMNSLRAEDTAVYYCATGSSSGWYPNFDYWGQGTLVTVSS
VL: DIQMTQSPSTLSASVGDRVTITCRASQSIGNWLAWYQQKPGEAPHLLIYQASSLEGGVPSRFSGSGSGTKFTLNISSLQPDDFATYYCQQYNSYSYTFGQGTKLDIKR

Target: T1, MMP-26 (human)
Assay: cell-based or functional assay

% Inhibition of JEG-3 cell invasion, 5 µg/ml (first test) | % Inhibition of JEG-3 cell invasion, 25 µg/ml (first test) | % Inhibition of JEG-3 cell invasion, 1 µg/ml (further test) | % Inhibition of JEG-3 cell invasion, 5 µg/ml (further test) | % Inhibition of JEG-3 cell invasion, 25 µg/ml (further test) | % Inhibition of JEG-3 cell invasion, 50 µg/ml (further test) | Binder
6% | 27% | – | – | – | – | B1
40% | 66% | 53% | 58% | 64% | 74% | B2
35% | 36% | 1% | 11% | 18% | 32% | B3
28% | 56% | 51% | 54% | 59% | 73% | B4
34% | 30% | – | – | – | – | B5
24% | 50% | 49% | 52% | 57% | 39% | B6
48% | 26% | 6% | 5% | 11% | 22% | B7
19% | 51% | 30% | 47% | 54% | 70% | B8
36% | 14% | – | – | – | – | B9
41% | 52% | 42% | 55% | 70% | 35% | B10
43% | 34% | -2% | 16% | 21% | 42% | B11
